Results from PMC9889267.

Target: MLucV (pTriEx-mTFP1(cp175)-Luciferase-Venus(cp173)), purified reporter protein (firefly) [luciferase: P08659]
Test: SEC-RALS; UMLucV (urea pre-aggregated MLucV), 1 µM, 300 µl on Superdex-200 increase; similar size profile up to 2,000 nM; oligomer of misfolded protomers

stoichiometry N: 12
Substance: MLucV (pTriEx-mTFP1(cp175)-Luciferase-Venus(cp173)), purified reporter protein (from UniProt P08659 1-544)
